PMC12120360, “Lysine acetylation modulates s‐OPA1 GTPase activity and oligomerization in mitochondrial membrane remodeling” (Protein Science : A Publication of the Protein Society, 2025)

B1: short form of human OPA1 (residues 195–960) wild-type (domain or fragment, UniProt O60313-1 195-960, looked up)
chain: ATDRGSESDKHFRKVSDKEKIDQLQEELLHTQLKYQRILERLEKENKELRKLVLQKDDKGIHHRKLKKSLIDMYSEVLDVLSDYDASYNTQDHLPRVVVVGDQSAGKTSVLEMIAQARIFPRGSGEMMTRSPVKVTLSEGPHHVALFKDSSREFDLTKEEDLAALRHEIELRMRKNVKEGCTVSPETISLNVKGPGLQRMVLVDLPGVINTVTSGMAPDTKETIFSISKAYMQNPNAIILCIQDGSVDAERSIVTDLVSQMDPHGRRTIFVLTKVDLAEKNVASPSRIQQIIEGKLFPMKALGYFAVVTGKGNSSESIEAIREYEEEFFQNSKLLKTSMLKAHQVTTRNLSLAVSDCFWKMVRESVEQQADSFKATRFNLETEWKNNYPRLRELDRNELFEKAKNEILDEVISLSQVTPKHWEEILQQSLWERVSTHVIENIYLPAAQTMNSGTFNTTVDIKLKQWTDKQLPNKAVEVAWETLQEEFSRFMTEPKGKEHDDIFDKLKEAVKEESIKRHKWNDFAEDSLRVIQHNALEDRSISDKQQWDAAIYFMEEALQARLKDTENAIENMVGPDWKKRWLYWKNRTQEQCVHNETKNELEKMLKCNEEHPAYLASDEITTVRKNLESRGVEVDPSLIKDTWHQVYRRHFLKTALNHCNLCRRGFYYYQRHFVDSELECNDVVLFWRIQRMLAITANTLRQQLTNTEVRRLEKNVKEVLEDFAEDGEKKIKLLTGKRVQLAEDLKKVREIQEKLDAFIEALHQEK
modifications: acetyl-lysine at K342 only (endogenous, acquired during expression; found by mass spectrometry)
notes: Optic Atrophy 1 (OPA1), human, short form (s-OPA1), residues 195-960; domain model of isoform 1; Gene bought from Genscript in the pGS-21a vector; also called s-OPA1 WT; s-OPA1; source: E. coli BL21 (DE3), purified (glutathione resin, 3C protease cleavage, size exclusion chromatography)
B2: s-OPA1 K772R (domain or fragment, human, UniProt O60313-1 195-960, looked up)
chain: ATDRGSESDKHFRKVSDKEKIDQLQEELLHTQLKYQRILERLEKENKELRKLVLQKDDKGIHHRKLKKSLIDMYSEVLDVLSDYDASYNTQDHLPRVVVVGDQSAGKTSVLEMIAQARIFPRGSGEMMTRSPVKVTLSEGPHHVALFKDSSREFDLTKEEDLAALRHEIELRMRKNVKEGCTVSPETISLNVKGPGLQRMVLVDLPGVINTVTSGMAPDTKETIFSISKAYMQNPNAIILCIQDGSVDAERSIVTDLVSQMDPHGRRTIFVLTKVDLAEKNVASPSRIQQIIEGKLFPMKALGYFAVVTGKGNSSESIEAIREYEEEFFQNSKLLKTSMLKAHQVTTRNLSLAVSDCFWKMVRESVEQQADSFKATRFNLETEWKNNYPRLRELDRNELFEKAKNEILDEVISLSQVTPKHWEEILQQSLWERVSTHVIENIYLPAAQTMNSGTFNTTVDIKLKQWTDKQLPNKAVEVAWETLQEEFSRFMTEPKGKEHDDIFDKLKEAVKEESIKRHKWNDFAEDSLRVIQHNALEDRSISDKQQWDAAIYFMEEALQARLKDTENAIENMVGPDWRKRWLYWKNRTQEQCVHNETKNELEKMLKCNEEHPAYLASDEITTVRKNLESRGVEVDPSLIKDTWHQVYRRHFLKTALNHCNLCRRGFYYYQRHFVDSELECNDVVLFWRIQRMLAITANTLRQQLTNTEVRRLEKNVKEVLEDFAEDGEKKIKLLTGKRVQLAEDLKKVREIQEKLDAFIEALHQEK
modifications: 10 endogenous acetylated lysine residues, including K328 and K342 (listed in Figure 2c)
notes: Optic Atrophy 1 (OPA1), human, short form (s-OPA1), residues 195-960; domain model of isoform 1; Gene bought from Genscript in the pGS-21a vector; source: E. coli BL21 (DE3), purified (glutathione resin, 3C protease cleavage, size exclusion chromatography)
B3: s-OPA1 K328Q (domain or fragment, human, UniProt O60313-1 195-960, looked up)
chain: ATDRGSESDKHFRKVSDKEKIDQLQEELLHTQLKYQRILERLEKENKELRKLVLQKDDKGIHHRKLKKSLIDMYSEVLDVLSDYDASYNTQDHLPRVVVVGDQSAGKTSVLEMIAQARIFPRGSGEMMTRSPVQVTLSEGPHHVALFKDSSREFDLTKEEDLAALRHEIELRMRKNVKEGCTVSPETISLNVKGPGLQRMVLVDLPGVINTVTSGMAPDTKETIFSISKAYMQNPNAIILCIQDGSVDAERSIVTDLVSQMDPHGRRTIFVLTKVDLAEKNVASPSRIQQIIEGKLFPMKALGYFAVVTGKGNSSESIEAIREYEEEFFQNSKLLKTSMLKAHQVTTRNLSLAVSDCFWKMVRESVEQQADSFKATRFNLETEWKNNYPRLRELDRNELFEKAKNEILDEVISLSQVTPKHWEEILQQSLWERVSTHVIENIYLPAAQTMNSGTFNTTVDIKLKQWTDKQLPNKAVEVAWETLQEEFSRFMTEPKGKEHDDIFDKLKEAVKEESIKRHKWNDFAEDSLRVIQHNALEDRSISDKQQWDAAIYFMEEALQARLKDTENAIENMVGPDWKKRWLYWKNRTQEQCVHNETKNELEKMLKCNEEHPAYLASDEITTVRKNLESRGVEVDPSLIKDTWHQVYRRHFLKTALNHCNLCRRGFYYYQRHFVDSELECNDVVLFWRIQRMLAITANTLRQQLTNTEVRRLEKNVKEVLEDFAEDGEKKIKLLTGKRVQLAEDLKKVREIQEKLDAFIEALHQEK
modifications: acetyl-lysine at K713 only (endogenous, by mass spectrometry)
notes: Optic Atrophy 1 (OPA1), human, short form (s-OPA1), residues 195-960; domain model of isoform 1; Gene bought from Genscript in the pGS-21a vector; also called acetylation mimetic mutant K328Q; source: E. coli BL21 (DE3), purified (glutathione resin, 3C protease cleavage, size exclusion chromatography)
B4: s-OPA1 K579Q (domain or fragment, human, UniProt O60313-1 195-960, looked up)
chain: ATDRGSESDKHFRKVSDKEKIDQLQEELLHTQLKYQRILERLEKENKELRKLVLQKDDKGIHHRKLKKSLIDMYSEVLDVLSDYDASYNTQDHLPRVVVVGDQSAGKTSVLEMIAQARIFPRGSGEMMTRSPVKVTLSEGPHHVALFKDSSREFDLTKEEDLAALRHEIELRMRKNVKEGCTVSPETISLNVKGPGLQRMVLVDLPGVINTVTSGMAPDTKETIFSISKAYMQNPNAIILCIQDGSVDAERSIVTDLVSQMDPHGRRTIFVLTKVDLAEKNVASPSRIQQIIEGKLFPMKALGYFAVVTGKGNSSESIEAIREYEEEFFQNSKLLKTSMLKAHQVTTRNLSLAVSDCFWKMVRESVEQQADSFKATRFNLETEWQNNYPRLRELDRNELFEKAKNEILDEVISLSQVTPKHWEEILQQSLWERVSTHVIENIYLPAAQTMNSGTFNTTVDIKLKQWTDKQLPNKAVEVAWETLQEEFSRFMTEPKGKEHDDIFDKLKEAVKEESIKRHKWNDFAEDSLRVIQHNALEDRSISDKQQWDAAIYFMEEALQARLKDTENAIENMVGPDWKKRWLYWKNRTQEQCVHNETKNELEKMLKCNEEHPAYLASDEITTVRKNLESRGVEVDPSLIKDTWHQVYRRHFLKTALNHCNLCRRGFYYYQRHFVDSELECNDVVLFWRIQRMLAITANTLRQQLTNTEVRRLEKNVKEVLEDFAEDGEKKIKLLTGKRVQLAEDLKKVREIQEKLDAFIEALHQEK
modifications: endogenous lysine acetylation, sites listed in Figure 2c
notes: as for B2

Target: the molecule itself
Experiment: mass photometry; protein in solution at 75 nM final; 20 mM HEPES-NaOH pH 7.5, 130 mM NaCl, 10 mM KCl, 2 mM MgCl2, 2 mM DTT, 2% glycerol; Refeyn mass photometer; mass measured three times for each protein

Stoichiometry N, 2:
B1
B2
B3
B4
